Experimental data: US20240082437A1 (Hoffmann-La Roche, published 2024)
Each block holds one binder with its values, some of them ahead of it.

Legend:
[1] = target: T1, Carcinoembryonic antigen (CEA) (human, UniProt P06731 35-685); assay: flow cytometry on MKN45 cells (CEA), hemibody mixed 1:1 with human ISO control, detected with anti-human IgG(H+L) (FITC in the legend box, A488 in the title)
T1 construct: whole, on cells; also called Carcinoembryonic antigen-related cell adhesion molecule 5; CEACAM5
T1 sequence (looked up): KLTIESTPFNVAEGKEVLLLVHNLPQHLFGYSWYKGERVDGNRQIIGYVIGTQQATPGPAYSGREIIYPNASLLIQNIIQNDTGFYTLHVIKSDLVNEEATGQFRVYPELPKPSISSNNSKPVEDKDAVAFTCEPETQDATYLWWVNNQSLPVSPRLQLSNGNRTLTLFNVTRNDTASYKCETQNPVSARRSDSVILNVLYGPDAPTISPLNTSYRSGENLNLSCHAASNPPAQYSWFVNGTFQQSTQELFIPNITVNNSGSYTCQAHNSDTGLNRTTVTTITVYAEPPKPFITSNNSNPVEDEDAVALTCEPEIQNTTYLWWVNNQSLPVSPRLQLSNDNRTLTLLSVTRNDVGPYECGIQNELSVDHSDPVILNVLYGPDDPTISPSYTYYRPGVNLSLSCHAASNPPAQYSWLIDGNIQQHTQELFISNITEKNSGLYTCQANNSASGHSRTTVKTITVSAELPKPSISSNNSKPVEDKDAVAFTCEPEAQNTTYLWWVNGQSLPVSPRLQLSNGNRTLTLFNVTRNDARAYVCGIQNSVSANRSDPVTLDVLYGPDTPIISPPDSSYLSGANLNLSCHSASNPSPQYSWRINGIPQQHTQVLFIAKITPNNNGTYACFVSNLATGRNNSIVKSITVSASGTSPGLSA
Description: To assess the functionality of the split antibodies or hemibodies, MKN-45 cells were detached from the culture vessel using accutase at 37° C. for 10 minutes. Subsequently, the cells were washed twice in PBS, and seeded into 96 well v-bottom plates to a final density of 4×10⁶ cells/well.
Subsequently, the cells were incubated for 1 h on ice and washed twice in PBS. The cell pellet was resuspended and 40 μl/well of detection reagent was added, either <human IgG(H+L)>FITC, (10 μg/ml) or Pb_Dotam_FITC 1:100=>(10 μg/ml) in PBS/5% FCS. After 60 min incubation on ice, the cells were washed twice in PBS and resuspended in 200 μl PBS/5% FCS for measurement of FITC fluorescence using a FACS canto.

[2] = target: T1, Carcinoembryonic antigen (CEA); assay: FACS on MKN-45 cells, detection with anti-huIgG(H+L)-Alexa488
Description: MKN-45 cells were detached from the culture bottle using Trypsin and were counted using a Casy cell counter. After pelleting at 4° C., 300 g the cells were resuspended in FACS Buffer (2.5% FCS in PBS), adjusted to 2.0E+06 cells/mL dispensed to 96-well PP V-bottom-Platte (25 μL/well=5.0E+04Zellen/well).
Both antibodies were added to the cells either separated followed by buffer or combined and incubated at 4° C. for 1 h. The cells were then washed twice in FACS buffer. After washing, the cells were resuspended in 50 μL FACS-buffer containing secondary antibody (<huIgG(H+L)>-Alexa488, c=10 μg/mL) and incubated 1 h at 4° C. The cells were then washed twice in FACS buffer and resuspended in 70 μl/well FACS buffer for measurement using a FACS Canto (BD, Pharmingen).

EC50 (read off the curve) [1]: ~1 µg/mL
B1: P1AD8749 (antibody, human IgG1, kappa, L234A L235A)
heavy 1: QVQLVQSGAEVKKPGASVKVSCKASGYTFTEFGMNWVRQAPGQGLEWMGWINTKTGEATYVEEFKGRVTFTTDTSTSTAYMELRSLRSDDTAVYYCARWDFAYYVEAMDYWGQGTTVTVSSASTKGPSVFPLAPSSKSTSGGTAALGCLVKDYFPEPVTVSWNSGALTSGVHTFPAVLQSSGLYSLSSVVTVPSSSLGTQTYICNVNHKPSNTKVDKKVEPKSCDKTHTCPPCPAPEAAGGPSVFLFPPKPKDTLMISRTPEVTCVVVDVSHEDPEVKFNWYVDGVEVHNAKTKPREEQYNSTYRVVSVLTVLHQDWLNGKEYKCKVSNKALGAPIEKTISKAKGQPREPQVCTLPPSRDELTKNQVSLSCAVKGFYPSDIAVEWESNGQPENNYKTTPPVLDSDGSFFLVSKLTVDKSRWQQGNVFSCSVMHEALHNHYTQKSLSLSPG
heavy 2: not shown
light: DIQMTQSPSSLSASVGDRVTITCKASAAVGTYVAWYQQKPGKAPKLLIYSASYRKRGVPSRFSGSGSGTDFTLTISSLQPEDFATYYCHQYYTYPLFTFGQGTKLEIKRTVAAPSVFIFPPSDEQLKSGTASVVCLLNNFYPREAKVQWKVDNALQSGNSQESVTEQDSKDSTYSLSSTLTLSKADYEKHKVYACEVTHQGLSSPVTKSFNRGEC
notes: Split antibody (hemibody) with CH1A1A anti-CEA Fabs; also called CEA-split-DOTAM-VH; PRIT Split Antibody with DOTAM-VH

EC50 [2]: 2.3 µg/mL
B2: P1AF0713 (antibody)
heavy 1: B1 heavy 1
heavy 2: not shown
light: B1 light
notes: Split antibody with CH1A1A anti-CEA Fabs; Both heavy chains carry VH-CH1; also called CEA specific SPLIT antibody (DOTA-VH-AST); P6_B

EC50 [2]: 2.7 µg/mL
B3: P1AF0712 (antibody)
heavy 1: not shown
heavy 2: QVQLVQSGAEVKKPGASVKVSCKASGYTFTEFGMNWVRQAPGQGLEWMGWINTKTGEATYVEEFKGRVTFTTDTSTSTAYMELRSLRSDDTAVYYCARWDFAYYVEAMDYWGQGTTVTVSSASTKGPSVFPLAPSSKSTSGGTAALGCLVKDYFPEPVTVSWNSGALTSGVHTFPAVLQSSGLYSLSSVVTVPSSSLGTQTYICNVNHKPSNTKVDKKVEPKSCDKTHTCPPCPAPEAAGGPSVFLFPPKPKDTLMISRTPEVTCVVVDVSHEDPEVKFNWYVDGVEVHNAKTKPREEQYNSTYRVVSVLTVLHQDWLNGKEYKCKVSNKALGAPIEKTISKAKGQPREPQVCTLPPSRDELTKNQVSLSCAVKGFYPSDIAVEWESNGQPENNYKTTPPVLDSDGSFFLVSKLTVDKSRWQQGNVFSCSVMHEALHNHYTQKSLSLSPGGGGGSGGGGSGGGGSGGGGSQAVVIQESALTTPPGETVTLTCGSSTGAVTASNYANWVQEKPDHLFTGLIGGHNNRPPGVPARFSGSLIGDKAALTIAGTQTEDEAIYFCALWYSDHWVIGGGTKLTVL
light: B1 light
notes: Split antibody with CH1A1A anti-CEA Fabs; Both heavy chains carry VH-CH1; also called CEA specific SPLIT antibody (DOTA-VL); P6_A
